Measurements as given in PMC12199698, “Reliable prediction of protein–protein binding affinity changes upon mutations with Pythia-PPI” (National Science Review, 2025).

Biological target: T1, SARS-CoV-2 prototype receptor binding domain (SARS-CoV-2 prototype, GISAID …, UniProt P0DTC2)
T1 construct: also called SARS-CoV-2 PT RBD; RBD
Assay: SPR; BIAcore 8K; antibody captured on a Protein A chip ([…]; running buffer PBST (PBS + 0.05% ([…]) Tween 20); […]; 1:1 (Langmuir) binding model; […]
Settings: both partners purified

B1: CB6 antibody (wild type) (antibody, V domains shown)
VH: EVQLVESGGGLVQPGGSLRLSCAASGFTVSSNYMSWVRQAPGKGLEWVSVIYSGGSTFYADSVKGRFTISRDNSMNTLFLQMNSLRAEDTAVYYCARVLPMYGDYLDYWGQGTLVTVSS
VL: not shown
notes: heavy chain variable region of CB6; constant region of human IgG1; light chain variable part of CB6; Ig kappa chain (constant part) to which the light chain was fused; IgG1, kappa; also called WT
Kd: 14.6 nM
